Laboratory results reported in US20090004190A1, “Rage Fusion Proteins And Methods Of Use” (priority 2006, published 2009).
Values joined by “and” are separate entries in the source; they are usually repeats but may differ in a detail not shown here. Equal entries are not always repeated.

T1: amphoterin (Ampho) (Homo sapiens, UniProt P09429)
T1 sequence (P09429 1-215): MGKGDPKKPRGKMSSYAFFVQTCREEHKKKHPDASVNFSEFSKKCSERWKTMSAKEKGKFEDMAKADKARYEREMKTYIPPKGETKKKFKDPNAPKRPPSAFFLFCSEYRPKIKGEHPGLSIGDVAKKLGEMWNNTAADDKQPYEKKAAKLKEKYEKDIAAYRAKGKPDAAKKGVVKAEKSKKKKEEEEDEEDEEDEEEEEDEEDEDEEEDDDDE

T2: S100b (S100) (Homo sapiens, UniProt P04271)
T2 sequence (P04271 1-92): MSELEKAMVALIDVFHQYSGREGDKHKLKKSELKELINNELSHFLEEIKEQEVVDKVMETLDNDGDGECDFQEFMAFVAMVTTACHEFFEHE

B1: TTP-3000: three domain RAGE fusion protein: human RAGE V domain and interdomain linker (to residue 136) fused to CH2 and CH3 domains of human IgG1 (protein)
chain: QNITARIGEPLVLKCKGAPKKPPQRLEWKLNTGRTEAWKVLSPQGGGPWDSVARVLPNGSLFLPAVGIQDEGIFRCQAMNRNGKETKSNYRVRVYQIPGKPEIVDSASELTAGPSVFLFPPKPKDTLMISRTPEVTCVVVDVSHEDPEVKFNWYVDGVEVHNAKTKPREEQYNSTYRVVSVLTVLHQDWLNGKEYKCKVSNKALPAPIEKTISKAKGQPREPQVYTLPPSRDELTKNQVSLTCLVKGFYPSDIAVEWESNGQPENNYKTTPPVLDSDGSFFLYSKLTVDKSRWQQGNVFSCSVMHEALHNHYTQKSLSLSPGK
B2: mouse sRAGE: mouse soluble RAGE used as comparator in the AD mouse model (protein, UniProt Q62151 23-340, looked up)
extracellular domain: GQNITARIGEPLVLSCKGAPKKPPQQLEWKLNTGRTEAWKVLSPQGGPWDSVARILPNGSLLLPATGIVDEGTFRCRATNRRGKEVKSNYRVRVYQIPGKPEIVDPASELTASVPNKVGTCVSEGSYPAGTLSWHLDGKLLIPDGKETLVKEETRRHPETGLFTLRSELTVIPTQGGTHPTFSCSFSLGLPRRRPLNTAPIQLRVREPGPPEGIQLLVEPEGGIVAPGGTVTLTCAISAQPPPQVHWIKDGAPLPLAPSPVLLLPEVGHEDEGTYSCVATHPSHGPQESPPVSIRVTETGDEGPAEGSVGESGLGTLA
modifications: extracellular domain
notes: mouse soluble RAGE used as comparator in the AD mouse model

What was measured:
amphoterin (Ampho) = molecular target: T1, amphoterin (Ampho); test: In vitro ligand binding (ELISA) to immobilized amphoterin; details: ligand 5 micrograms per well; FIG. 7
Method: (§1) For example, the RAGE fusion protein may be used in a binding assay to identify potential RAGE ligands. In one example embodiment of such a binding assay, a known RAGE ligand may coated onto a solid substrate (e.g., Maxisorb plates) at a concentration of about 5 micrograms per well, where each well contains a total volume of about 100 microliters (μL). The plates may be incubated at 4° C. overnight to allow the ligand to absorb. Alternatively, shorter incubation periods at higher temperature (e.g., room temperature) may be used. […] The RAGE fusion protein bound to the immobilized ligand may be detected in a variety of ways. […] The bound complex may be detected by adding the alkaline phosphatase substrate, para-nitrophenylphosphate (PNPP), and measuring conversion of PNPP to para-nitrophenol (PNP) as an increase in absorbance at 405 nm. […] In the absence of ligand (i.e., coating with only BSA) there was no increase in absorbance. […] Binding was detected by the addition of an immunodetection complex containing a monoclonal mouse anti-human IgG1 diluted 1:11,000 to a final assay concentration (FAC) of 21 ng/100 μL, a biotinylated goat anti-mouse IgG diluted 1:500, to a FAC of […], and an avidin-linked alkaline phosphatase. […]

S100b (S100) = molecular target: T2, S100b (S100); test: In vitro ligand binding (ELISA) to immobilized S100b; details: ligand 5 micrograms per well; FIG. 7
Method: as §1

[1] = system: recurrent diabetes in NOD/LtJ mice with syngeneic islet transplants; test: Syngeneic islet transplantation in diabetic NOD mice; format: in vivo, mouse; details: 300 ug LD + 100 ug qod ip
Text: Spontaneous autoimmune non-obese diabetic mice (NOD/LtJ) (12-25 weeks old) served as recipients for islet cells, while young pre-diabetic NOD/LtJ mice (6-7 weeks old) served as donors in syngeneic islet transplantation. Islets for transplantation were isolated as described above in Section A (Allogeneic Islet Transplantation).
Diabetic NOD/LtJ mice received islet grafts within 2 days of the diagnosis of diabetes. 500-600 freshly isolated islets (approximately 550 islet equivalents) from donor mice were picked up with an infusion set and transplanted into the subcapular space of the right kidney.
Test compounds were administered as soon as the islets were transplanted and continued for approximately 8 weeks.
Islet graft function was monitored by serial blood glucose measurements daily for the first 2 weeks after islet transplantation, followed by every other day thereafter. Reversal of diabetes was defined as blood glucose less than 200 mg/dl on two consecutive measurements. Percentage graft loss was determined when blood glucose exceeded 250 mg/dl on two consecutive measurements.

[2] = molecular target: T3, amyloid-beta (Abeta) (Amyloid Beta (1-40)) (Homo sapiens, UniProt P05067); test: In vitro ligand binding (ELISA) to immobilized amyloid-beta; details: ligand 5 micrograms per well; FIG. 7
T3 construct: Amyloid Beta (1-40) from Biosource; purchased Biosource
T3 sequence (P05067 672-711): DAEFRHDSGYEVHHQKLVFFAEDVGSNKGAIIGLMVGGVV
Method: as §1

[3] = system: transgenic mice expressing human Swedish mutant APP; test: Mouse model of AD (APP transgenic mice): amyloid deposition and Morris water maze; format: in vivo; details: treated for 3 months, vs vehicle and human IgG1
Method: Experiments were performed to evaluate whether TTP-4000 could affect amyloid formation and cognitive dysfunction in a mouse model of AD. The experiments utilized transgenic mice expressing the human Swedish mutant amyloid precursor protein (APP) under the control of the PDGF-B chain promoter. Over time, these mice generate high levels of the RAGE ligand, amyloid beta (Aβ).
The APP mice (male) used in this experiment were designed by microinjection of the human APP gene (with the Swedish and London mutations) into mouse eggs under the control of the platelet-derived growth factor B (PDGF-B) chain gene promoter. The mice were generated on a C57BL/6 background and were developed by Molecular Therapeutics Inc. Animals were fed ad libitum and maintained by brother sister mating. The mice generated from this construct develop amyloid deposits starting at 6 months of age. Animals were aged for 6 months and then maintained for 90 days and sacrificed for amyloid quantification.
APP transgenic mice were administered vehicle or TTP4000 every other day [qod (i.p.)] for 90 days starting at 6 months of age. At the end of the experiment, animals were sacrificed and examined for Aβ plaque burden in the brain (i.e., plaque number). A 6-month control APP group was used to determine the baseline of amyloid deposits. In addition, at the end of the study, the animals were subjected to behavioral (Morris water maze) analysis. The investigators were blinded to the study compounds. Samples were given to the mice at 0.25 ml/mouse/every other day.
For histological examination, the animals were anesthetized with an intraperitoneal injection (IP) of sodium pentobarbital (50 mg/kg). The animals were transcardially perfused with 4° C., phosphate-buffered saline (PBS) followed by 4% paraformaldehyde. The brains were removed and placed in 4% paraformaldehyde over night. The brains were processed to paraffin and embedded. Ten serial 30-μm thick sections through the brain were obtained. Sections were subjected to primary antibody overnight at 4° C. (Aβ peptide antibody) in order to detect the amyloid deposits in the brain of the transgenic animals (Guo et al., J. Neurosci., 22:5900-5909 (2002)). Sections were washed in Tris-buffered saline (TBS) and secondary antibody was added and incubated for 1 hour at room temperature. After washing, the sections were incubated as instructed in the Vector ABC Elite kit (Vector Laboratories) and stained with […] (DAB). The reactions were stopped in water and cover-slipped after treatment with xylene. The amyloid area in each section was determined with a computer-assisted image analysis system, consisting of a Power Macintosh computer equipped with a Quick Capture frame grabber card, Hitachi CCD camera mounted on an Olympus microscope and camera stand. NIH Image Analysis Software, v. 1.55 was used. The images were captured and the total area of amyloid was determined over the ten sections. A single operator blinded to treatment status performed all measurements. Summing the amyloid volumes of the sections and dividing by the total number of sections was done to calculate the amyloid volume.
For quantitative analysis, an enzyme-linked immunosorbent assay (ELISA) was used to measure the levels of human total Aβ, Aβtotal and Aβ1-42 in the brains of APP transgenic mice (Biosource International, Camarillo, Calif.). Aβtotal and Aβ1-42 were extracted from mouse brains by guanidine hydrochloride and quantified as described by the manufacturer. […]

| Molecule | binding to immobilized amphoterin (absorbance at 405 nm) (amphoterin (Ampho)) | binding to immobilized S100b (absorbance at 405 nm) (S100b (S100)) | day of graft loss, Mean [1] [days] | day of graft loss, each animal ([1]; blood glucose exceeded 250 mg/dl) | binding to immobilized amyloid-beta (absorbance at 405 nm) [2] | Aβ plaques in the brain ([3]; FIG. 14A) | cognitive dysfunction (Morris water maze) ([3]; FIG. 14B) |
| --- | --- | --- | --- | --- | --- | --- | --- |
| B1 | specifically interact | specifically interact | 38.43 | 46 days and 42 days and 41 days and 34 days and 32 days and 30 days and 44 days | specifically interact |  |  |
| B2 |  |  |  |  |  | fewer Aβ plaques | less cognitive dysfunction |
